T1: human IL-22 receptor (human IL-22Ra and human IL-10Rb) on cells (human, UniProt Q8N6P7 16-574; Q08334 20-325)
T1 sequence (looked up) 1: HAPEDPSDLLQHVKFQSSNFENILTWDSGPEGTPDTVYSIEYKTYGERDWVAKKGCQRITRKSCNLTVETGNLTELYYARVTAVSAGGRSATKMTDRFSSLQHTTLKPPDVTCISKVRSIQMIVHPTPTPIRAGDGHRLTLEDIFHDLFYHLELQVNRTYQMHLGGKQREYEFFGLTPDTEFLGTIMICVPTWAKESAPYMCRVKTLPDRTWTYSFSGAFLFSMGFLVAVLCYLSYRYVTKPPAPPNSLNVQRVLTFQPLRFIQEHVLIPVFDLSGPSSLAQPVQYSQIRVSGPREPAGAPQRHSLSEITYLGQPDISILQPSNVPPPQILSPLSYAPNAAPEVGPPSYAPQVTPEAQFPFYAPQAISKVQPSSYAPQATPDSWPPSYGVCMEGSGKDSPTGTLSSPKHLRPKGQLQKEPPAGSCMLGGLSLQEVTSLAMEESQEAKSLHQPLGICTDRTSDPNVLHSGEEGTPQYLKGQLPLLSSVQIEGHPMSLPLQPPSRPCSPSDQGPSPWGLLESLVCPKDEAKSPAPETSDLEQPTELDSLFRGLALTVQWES
T1 sequence (looked up) 2: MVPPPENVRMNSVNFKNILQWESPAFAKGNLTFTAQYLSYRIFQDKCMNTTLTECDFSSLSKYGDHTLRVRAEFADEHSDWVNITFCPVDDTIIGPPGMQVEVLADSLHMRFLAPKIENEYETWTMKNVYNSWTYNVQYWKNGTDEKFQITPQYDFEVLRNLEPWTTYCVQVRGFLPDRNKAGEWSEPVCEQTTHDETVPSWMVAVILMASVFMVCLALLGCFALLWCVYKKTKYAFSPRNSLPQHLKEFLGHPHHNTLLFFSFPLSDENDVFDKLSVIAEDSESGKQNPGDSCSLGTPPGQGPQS


Experiments:
Experiment in all cases: cell-based or functional assay
[1] = molecular target: T1, human IL-22 receptor (human IL-22Ra and …)
[2] = molecular target: T1, human IL-22 receptor (human IL-22Ra and …); remark: listed apart in the source
[3] = molecular target: T1, human IL-22 receptor (human IL-22Ra and …); remark: listed apart in the source

| Binder | EC50, luciferase reporter gene (STAT3-induced promoter) in BHK cells expressing human IL-22Ra and IL-10Rb [1] [nM] | EC50, pSTAT3 (AlphaScreen SureFire STAT3 p-Tyr705) in HepG2 cells [2] [nM] | potency in BHK cell reporter gene assay, fold reduction against hIL-22 [3] [fold] | potency in HepG2 pSTAT3 assay, fold reduction against hIL-22 [3] [fold] |
| --- | --- | --- | --- | --- |
| Derivative 10 (ligand, C16 diacid attached by linker γGlu-OEG-OEG-C2DA-Ac to Cys at site 1C (Cys substituted at position 1 of hIL-22)) GPGCPISSHCRLDKSNFQQPYITNRTFMLAKEASLADQNTDVRLIGEKLFHGVSMSERCYLMKQVLQFTLEEVLFPQSDRFQPYMQEVVPFLARLSNRLSTCHIEGDDLHIQRNVQKLKDTVKKLGESGEIKAIGELDLLFMSLRNACI | 0.37 | – | – | – |
| Derivative 3 (ligand, C16 diacid attached by linker γGlu-OEG-OEG-C2DA-Ac to Cys at site 1C (Cys substituted at position 1 of hIL-22)) GPGCPISSHCRLDKSNFQQPYITNRTFMLAKEASLADNNTDVRLIGEKLFHGVSMSERCYLMKQVLNFTLEEVLFPQSDRFQPYMQEVVPFLARLSNRLSTCHIEGDDLHIQRNVQKLKDTVKKLGESGEIKAIGELDLLFMSLRNACI | 0.3 | – | 4 | – |
| Derivative 1 (ligand, C18 diacid attached by linker γGlu-OEG-OEG-C2DA-Ac to Cys at site 1C (Cys substituted at position 1 of hIL-22, after the G-P-G N-terminal peptide)) GPGCPISSHCRLDKSNFQQPYITNRTFMLAKEASLADNNTDVRLIGEKLFHGVSMSERCYLMKQVLNFTLEEVLFPQSDRFQPYMQEVVPFLARLSNRLSTCHIEGDDLHIQRNVQKLKDTVKKLGESGEIKAIGELDLLFMSLRNACI | 0.48 | 10.1 | 7 | 2.5 |
| Derivative 2 (ligand, C18 diacid attached by linker γGlu-OEG-OEG-C2DA-Ac to Cys at site -7C (in the 15-mer N-terminal peptide G-P-G-S-G-S-G-S-C-G-S-G-S-G-S, numbered negatively from hIL-22 residue 1)) GPGSGSGSCGSGSGSAPISSHCRLDKSNFQQPYITNRTFMLAKEASLADNNTDVRLIGEKLFHGVSMSERCYLMKQVLNFTLEEVLFPQSDRFQPYMQEVVPFLARLSNRLSTCHIEGDDLHIQRNVQKLKDTVKKLGESGEIKAIGELDLLFMSLRNACI | – | 6.98 | – | – |
| Comparator 1 (ligand) GPISSHCRLDKSNFQQPYITNRTFMLAKEASLADNNTDVRLIGEKLFHGVSMSERCYLMKQVLNFTLEEVLFPQSDRFQPYMQEVVPFLARLSNRLSTCHIEGDDLHIQRNVQKLKDTVKKLGESGEIKAIGELDLLFMSLRNACI | 0.06 | 4.73 | – | – |
| Derivative 8 (ligand, C18 diacid attached by linker γGlu-OEG-OEG-C2DA-Ac to Cys at site 6C (Cys substituted at position 6 of hIL-22)) GAPISSCCRLDKSNFQQPYITNRTFMLAKEASLADQNTDVRLIGEKLFHGVSMSERCYLMKQVLQFTLEEVLFPQSDRFQPYMQEVVPFLARLSNRLSTCHIEGDDLHIQRNVQKLKDTVKKLGESGEIKAIGELDLLFMSLRNACI | 1.24 | – | – | – |

Other lines, results leading:

| EC50, luciferase reporter gene (STAT3-induced promoter) in BHK cells expressing human IL-22Ra and IL-10Rb [1] [nM] | EC50, pSTAT3 (AlphaScreen SureFire STAT3 p-Tyr705) in HepG2 cells [2] [nM] | potency in BHK cell reporter gene assay, fold reduction against hIL-22 [3] [fold] | potency in HepG2 pSTAT3 assay, fold reduction against hIL-22 [3] [fold] | Binder |
| --- | --- | --- | --- | --- |
| 0.61 | 14.9 | – | – | Derivative 6 (ligand, C18 diacid attached by linker γGlu-OEG-OEG-C2DA-Ac to Cys at site 1C (Cys substituted at position 1 of hIL-22)) GPGCPISSHCRLDKSNFQQPYITNRTFMLAKEASLADQNTDVRLIGEKLFHGVSMSERCYLMKQVLQFTLEEVLFPQSDRFQPYMQEVVPFLARLSNRLSTCHIEGDDLHIQRNVQKLKDTVKKLGESGEIKAIGELDLLFMSLRNACI |
| – | 12.1 | – | – | Comparator 4 (ligand) GPGCPISSHCRLDKSNFQQPYITNRTFMLAKEASLADNNTDVRLIGEKLFHGVSMSERCYLMKQVLNFTLEEVLFPQSDRFQPYMQEVVPFLARLSNRLSTCHIEGDDLHIQRNVQKLKDTVKKLGESGEIKAIGELDLLFMSLRNACI |
| 0.19 | – | – | – | Comparator 5 (ligand) GPGCPISSHCRLDKSNFQQPYITNRTFMLAKEASLADQNTDVRLIGEKLFHGVSMSERCYLMKQVLQFTLEEVLFPQSDRFQPYMQEVVPFLARLSNRLSTCHIEGDDLHIQRNVQKLKDTVKKLGESGEIKAIGELDLLFMSLRNACI |
| 0.18 | – | – | – | Derivative 4 (ligand, C16 diacid attached by linker γGlu-OEG-OEG-C2DA-Ac to Cys at site -7C (in the 15-mer N-terminal peptide)) GPGSGSGSCGSGSGSAPISSHCRLDKSNFQQPYITNRTFMLAKEASLADNNTDVRLIGEKLFHGVSMSERCYLMKQVLNFTLEEVLFPQSDRFQPYMQEVVPFLARLSNRLSTCHIEGDDLHIQRNVQKLKDTVKKLGESGEIKAIGELDLLFMSLRNACI |
| 0.07 | 3.88 | – | – | native mature human IL-22 (hIL-22) (ligand) APISSHCRLDKSNFQQPYITNRTFMLAKEASLADNNTDVRLIGEKLFHGVSMSERCYLMKQVLNFTLEEVLFPQSDRFQPYMQEVVPFLARLSNRLSTCHIEGDDLHIQRNVQKLKDTVKKLGESGEIKAIGELDLLFMSLRNACI |
| 0.28 | – | – | – | Derivative 9 (ligand, C18 diacid attached by linker γGlu-OEG-OEG-C2DA-Ac to Cys at site 33C (Cys substituted at position 33 of hIL-22)) APISSHCRLDKSNFQQPYITNRTFMLAKEASLCDQNTDVRLIGEKLFHGVSMSERCYLMKQVLQFTLEEVLFPQSDRFQPYMQEVVPFLARLSNRLSTCHIEGDDLHIQRNVQKLKDTVKKLGESGEIKAIGELDLLFMSLRNACI |

— patent publication US20220347304A1 (CYTOKI PHARMA, published 2022)
